Measured values as given in patent publication US20170073406A1.

Columns and labels:
[1] = target: biotinylated His-tagged TGF-β1 LAP C4S (Homo sapiens (Human)) (UniProt P01137); assay: ELISA, neutravidin plate with biotinylated His-tagged TGF-β1 LAP C4S; antibody dilution 1:5,000; fluorescent secondary detection
[2] = target: biotinylated His-tagged TGF-β1 LAP C4S (Homo sapiens (Human)) (UniProt P01137); assay: ELISA, neutravidin plate with biotinylated His-tagged TGF-β1 LAP C4S; antibody dilution 1:10,000; fluorescent secondary detection
[3] = target: biotinylated His-tagged TGF-β1 LAP C4S (Homo sapiens (Human)) (UniProt P01137); assay: ELISA, neutravidin plate with biotinylated His-tagged TGF-β1 LAP C4S; antibody dilution 1:1,000; fluorescent secondary detection
[4] = target: human GARP-proTGF-β1 (membrane-bound GARP with proTGF-β1, on transfected cells) (human) (UniProt Q14392); assay: cell-based or functional assay
[5] = target: human LTBP1 plus proTGF-β1, expressed by transiently transfected SW480 or HEK293 cells (human) (UniProt Q14766); assay: cell-based or functional assay
[6] = target: human GARP-proTGF-β1 (membrane-bound GARP with proTGF-β1, on transfected cells) (human) (UniProt Q14392); assay: flow cytometry on 300.19 cells stably expressing the complex; MFI minus control 300.19 cells; one-site binding fit
[7] = target: human GARP-TGF-β1 LAP (membrane-bound GARP with TGF-β1 LAP, on 300.19 cells) (human) (UniProt Q14392); assay: as above
[8] = target: proTGF-β1 complexed with sGARP (Homo sapiens (Human)) (UniProt Q14392); assay: ELISA with increasing concentrations of MAB246
[9] = target: TGF-β1 LAP complexed with sGARP (Homo sapiens (Human)) (UniProt Q14392); assay: ELISA with increasing concentrations of MAB246
[10] = target: LTBP1-proTGFβ1 (protein complex of the ELISA of Example 35) (UniProt Q14766); assay: ELISA with increasing concentrations of MAB246
Chain of LTBP1-proTGFβ1 (protein complex of the ELISA of Example 35) (Q14766 347-1721 limits assumed, chain 1 of 2): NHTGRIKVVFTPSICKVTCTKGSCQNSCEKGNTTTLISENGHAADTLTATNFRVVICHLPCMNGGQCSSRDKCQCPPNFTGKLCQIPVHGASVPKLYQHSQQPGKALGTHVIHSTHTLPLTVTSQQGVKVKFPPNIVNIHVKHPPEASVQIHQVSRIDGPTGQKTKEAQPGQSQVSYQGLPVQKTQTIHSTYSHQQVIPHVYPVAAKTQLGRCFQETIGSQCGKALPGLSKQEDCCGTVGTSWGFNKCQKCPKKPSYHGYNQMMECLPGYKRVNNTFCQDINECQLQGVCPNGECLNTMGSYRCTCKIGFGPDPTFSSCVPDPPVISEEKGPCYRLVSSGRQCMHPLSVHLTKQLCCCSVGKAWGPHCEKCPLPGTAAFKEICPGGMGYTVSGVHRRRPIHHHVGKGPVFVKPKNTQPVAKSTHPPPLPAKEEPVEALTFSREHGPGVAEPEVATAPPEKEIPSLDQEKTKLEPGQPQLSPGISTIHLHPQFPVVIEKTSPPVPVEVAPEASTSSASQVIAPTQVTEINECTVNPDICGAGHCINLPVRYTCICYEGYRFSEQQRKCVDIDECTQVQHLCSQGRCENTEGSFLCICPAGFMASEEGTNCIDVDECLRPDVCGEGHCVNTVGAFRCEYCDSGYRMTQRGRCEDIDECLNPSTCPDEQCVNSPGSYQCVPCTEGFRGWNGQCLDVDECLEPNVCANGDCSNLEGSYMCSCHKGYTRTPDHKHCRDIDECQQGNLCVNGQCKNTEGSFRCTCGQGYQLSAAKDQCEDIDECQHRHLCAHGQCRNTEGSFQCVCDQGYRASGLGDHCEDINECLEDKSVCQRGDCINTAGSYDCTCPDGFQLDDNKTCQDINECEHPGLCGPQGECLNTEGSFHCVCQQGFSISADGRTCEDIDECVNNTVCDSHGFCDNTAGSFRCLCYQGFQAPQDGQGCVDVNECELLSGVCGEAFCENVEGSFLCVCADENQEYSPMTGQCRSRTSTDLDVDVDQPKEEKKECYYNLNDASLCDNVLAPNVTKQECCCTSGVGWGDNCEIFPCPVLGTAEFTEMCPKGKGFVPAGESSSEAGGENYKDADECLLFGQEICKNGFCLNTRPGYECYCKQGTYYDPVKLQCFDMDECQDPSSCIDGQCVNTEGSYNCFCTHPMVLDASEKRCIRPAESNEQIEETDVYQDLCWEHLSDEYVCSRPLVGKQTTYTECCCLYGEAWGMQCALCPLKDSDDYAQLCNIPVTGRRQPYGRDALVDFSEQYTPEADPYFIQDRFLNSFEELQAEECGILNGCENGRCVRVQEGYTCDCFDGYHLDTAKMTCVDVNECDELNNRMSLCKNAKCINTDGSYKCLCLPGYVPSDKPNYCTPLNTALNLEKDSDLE
Chain of LTBP1-proTGFβ1 (protein complex of the ELISA of Example 35) (chain, as listed by the source limits assumed, chain 2 of 2): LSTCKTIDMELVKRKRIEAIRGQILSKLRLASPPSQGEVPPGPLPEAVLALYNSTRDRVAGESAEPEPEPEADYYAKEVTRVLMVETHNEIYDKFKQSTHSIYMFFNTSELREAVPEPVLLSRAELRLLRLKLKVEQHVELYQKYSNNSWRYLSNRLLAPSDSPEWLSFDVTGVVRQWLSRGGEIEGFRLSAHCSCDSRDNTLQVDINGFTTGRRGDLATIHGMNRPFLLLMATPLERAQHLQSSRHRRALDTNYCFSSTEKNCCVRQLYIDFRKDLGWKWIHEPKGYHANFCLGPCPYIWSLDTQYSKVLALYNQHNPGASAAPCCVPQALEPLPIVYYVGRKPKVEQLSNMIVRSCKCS

Chain of biotinylated His-tagged TGF-β1 LAP C4S (Homo sapiens (Human)) (P01137 other isoform, or with tags, fused parts or gaps limits assumed): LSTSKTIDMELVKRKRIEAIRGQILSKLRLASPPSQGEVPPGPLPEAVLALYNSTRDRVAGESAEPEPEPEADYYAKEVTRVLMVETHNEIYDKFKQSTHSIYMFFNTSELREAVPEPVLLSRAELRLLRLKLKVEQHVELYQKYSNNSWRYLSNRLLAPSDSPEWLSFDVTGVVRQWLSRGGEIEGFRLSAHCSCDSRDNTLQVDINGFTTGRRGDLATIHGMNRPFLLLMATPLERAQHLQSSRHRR
Chain of human LTBP1 plus proTGF-β1, expressed by transiently transfected SW480 or HEK293 cells (human) (Q14766 347-1721 limits assumed, chain 1 of 2): as the sequence (Q14766 347-1721 limits assumed, chain 1 of 2) above
Chain of human GARP-proTGF-β1 (membrane-bound GARP with proTGF-β1, on transfected cells) (human) (Q14392 20-662 limits assumed, chain 1 of 2): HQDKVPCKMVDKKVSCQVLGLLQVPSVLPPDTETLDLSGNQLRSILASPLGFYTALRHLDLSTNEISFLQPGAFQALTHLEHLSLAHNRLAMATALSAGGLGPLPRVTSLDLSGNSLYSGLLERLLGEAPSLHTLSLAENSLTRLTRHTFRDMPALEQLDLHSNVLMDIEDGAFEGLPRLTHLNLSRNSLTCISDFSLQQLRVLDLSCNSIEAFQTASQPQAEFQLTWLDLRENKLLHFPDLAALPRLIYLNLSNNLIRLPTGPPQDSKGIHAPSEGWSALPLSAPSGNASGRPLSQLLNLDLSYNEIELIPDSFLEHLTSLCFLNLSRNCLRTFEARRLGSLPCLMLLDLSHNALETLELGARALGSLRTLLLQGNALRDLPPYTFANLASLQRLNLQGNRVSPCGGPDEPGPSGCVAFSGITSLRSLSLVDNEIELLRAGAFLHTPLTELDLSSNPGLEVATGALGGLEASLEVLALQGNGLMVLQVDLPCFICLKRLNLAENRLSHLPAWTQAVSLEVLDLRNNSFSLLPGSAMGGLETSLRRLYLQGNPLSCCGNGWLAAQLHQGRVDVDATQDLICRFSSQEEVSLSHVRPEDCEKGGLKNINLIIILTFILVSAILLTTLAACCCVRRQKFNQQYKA
Chain of human GARP-TGF-β1 LAP (membrane-bound GARP with TGF-β1 LAP, on 300.19 cells) (human) (Q14392 20-662 limits assumed, chain 1 of 2): as above
Chain of human GARP-TGF-β1 LAP (membrane-bound GARP with TGF-β1 LAP, on 300.19 cells) (human) (chain, as listed by the source limits assumed, chain 2 of 2): as the sequence (P01137 other isoform, or with tags, fused parts or gaps limits assumed) above, with S4C counted along it
Chain of proTGF-β1 complexed with sGARP (Homo sapiens (Human)) (Q14392 18-627 limits assumed, chain 1 of 2): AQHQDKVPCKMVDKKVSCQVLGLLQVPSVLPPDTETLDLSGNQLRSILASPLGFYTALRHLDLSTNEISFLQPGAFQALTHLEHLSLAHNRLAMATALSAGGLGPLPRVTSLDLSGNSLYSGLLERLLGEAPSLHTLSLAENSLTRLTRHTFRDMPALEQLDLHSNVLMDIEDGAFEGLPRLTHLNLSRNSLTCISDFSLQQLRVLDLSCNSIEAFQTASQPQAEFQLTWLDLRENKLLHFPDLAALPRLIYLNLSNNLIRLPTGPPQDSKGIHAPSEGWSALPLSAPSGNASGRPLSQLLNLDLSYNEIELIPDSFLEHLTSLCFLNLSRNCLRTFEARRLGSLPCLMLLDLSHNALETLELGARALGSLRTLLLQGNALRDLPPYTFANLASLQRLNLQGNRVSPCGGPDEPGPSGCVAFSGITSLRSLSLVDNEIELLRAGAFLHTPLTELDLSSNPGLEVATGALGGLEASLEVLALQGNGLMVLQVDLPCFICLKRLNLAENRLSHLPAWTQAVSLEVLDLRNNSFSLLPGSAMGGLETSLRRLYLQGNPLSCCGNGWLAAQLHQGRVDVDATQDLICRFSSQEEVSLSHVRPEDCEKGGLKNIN
Chain of TGF-β1 LAP complexed with sGARP (Homo sapiens (Human)) (Q14392 18-627 limits assumed, chain 1 of 2): as above
Chain of TGF-β1 LAP complexed with sGARP (Homo sapiens (Human)) (chain, as listed by the source limits assumed, chain 2 of 2): as the sequence (P01137 other isoform, or with tags, fused parts or gaps limits assumed) above, with S4C counted along it

| RFU [1] | RFU [2] | RFU [3] | reporter activity (TMLC luciferase, RLU), 20 or 50 µg/ml MAB246 [4] | RLUs (TMLC luciferase), with αvβ6-expressing cells and 20 or 50 µg/ml MAB246 [5] | reporter activity (TMLC luciferase, RLU), 20 µg/ml MAB246 [5] | reporter activity (TMLC luciferase, RLU), 50 µg/ml MAB246 [5] | Kd [6] | Kd [7] | Kd [8] | Kd [9] | Kd [10] | RLUs (TMLC luciferase), no antibody [5] | Substance |
| --- | --- | --- | --- | --- | --- | --- | --- | --- | --- | --- | --- | --- | --- |
| 4540 RFU | 3310 RFU | 14600 RFU | – | – | – | – | – | – | – | – | – | – | 9016.2 (mouse monoclonal anti-TGF-β LAP antibody, Abcam, Cambridge, UK) |
| 24900 RFU | 18800 RFU | 26800 RFU | < 2 fold | 3.5 fold | 2 fold | > 2.5 fold | 35.1 µg/mL | 0.08 µg/mL | 0.91 nM | 0.14 nM | 0.24 nM | – | MAB246 (R&D Systems, Minneapolis, Minn.), mouse IgG1 anti-TGF-β1 LAP antibody, clone 27235 |
| 42100 RFU | 32000 RFU | 57500 RFU | – | – | – | – | 0.19 µg/mL | 0.11 µg/mL | – | – | – | – | MAB2463 (R&D Systems, Minneapolis, Minn.), mouse IgG1 anti-TGF-β1 LAP antibody, clone 27232 |
| – | – | – | – | – | – | – | – | – | – | – | – | 2.5 fold | αvβ6 integrin (on cells, e.g. SW480-β6 cells) (from UniProt P06756 31-1048; P18564 22-788) (receptor) |
